This is an account of results in US6890726, “Method for selecting recombinase variants with altered specificity” (Oklahoma Medical Research Foundation).

Numbering of substitutions follows the chain as printed.

Common to all, as to conditions: chain copies: 4
One series has as its target Cre E262A (UniProt P06956 P06956:1-343, E262A). Kind of series: cell_activity; E. coli. The text has this:
(§1) The three defined Cre mutants for the amino acid position 262 were subjected to a functional test for loxK2, loxK1 and loxP recombination activity, as mentioned before. […] To conclude, this final experiment provides the necessary evidence that the E262G mutation presents the basis for the observed decrease in specificity of Cre. However, additional mutations seem to be helpful to increase the newly obtained activity further. In addition, glycine at position 262 is not the only possible residue to permit a remarkable increase in loxK2 activity.
(§2) The results of functional testing of three defined Cre mutants for position 262 compared to wt Cre are listed. All enzymes were checked on loxK2, loxP and loxK1 recombination in the selection strains BS1494, BS1493 and the control strain BS1541. In the first column the Cre candidate is indicated, in the second the allowed time for cre expression. The three following columns show the calculated percentages of Kan^R when subjecting the different Cre mutants and wt Cre to the three selection strains. The frequency of the observed Kan^R phenotype is considered as an indicator for the frequency of […] recombination: On loxK2, E262G and E262W show approximately an 10^3 fold increased Kan^R frequency compared to wt Cre, whereas E262A results in a 200 fold increase. […]

A further series concerns the target Cre E262W (UniProt P06956 P06956:1-343, E262W). Kind of series: cell_activity; similar to E262G.
Text: as §1, §2

For another series, the target named is T1, Cre R3M2 (mxoxox 2) (UniProt P06956 SEQ:1-343).
T1 chain: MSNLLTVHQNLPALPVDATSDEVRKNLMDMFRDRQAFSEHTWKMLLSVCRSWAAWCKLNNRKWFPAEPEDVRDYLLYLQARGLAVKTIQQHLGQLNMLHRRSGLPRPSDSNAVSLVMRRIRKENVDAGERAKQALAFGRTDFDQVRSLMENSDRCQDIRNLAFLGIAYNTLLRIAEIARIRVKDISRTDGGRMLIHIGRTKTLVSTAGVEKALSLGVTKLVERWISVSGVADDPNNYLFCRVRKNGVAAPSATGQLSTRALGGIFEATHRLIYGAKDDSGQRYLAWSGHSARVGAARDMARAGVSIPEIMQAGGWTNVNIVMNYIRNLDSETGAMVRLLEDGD
Kind of series: cell_activity; E. coli.

A further series addresses T2, Cre R3M1 (mxoxox 1) (UniProt P06956 SEQ:1-343).
T2 chain: T1 chain with D29A, G138E, D189N, V227I, G254S
Kind of series: cell_activity; E. coli.

The next series has as its target T3, Cre R3M3 (mxoxox 3) (UniProt P06956 SEQ:1-343).
T3 chain: T1 chain with V16I, G138E, D189N, G198S, R223Q, G254S, Q255R, P307L
Kind of series: cell_activity; E. coli.

B1: loxK2 (selection plasmid pBS584) (dsDNA)
DNA 1: GATACAACGTATATACCTTTCTATACGTTGTATT
DNA 2: AATACAACGTATAGAAAGGTATATACGTTGTATC
For the molecule B1, the activity is 200 fold vs wt with Cre E262A; about 1000 fold vs wt with Cre E262W; about 50 % recombination with Cre R3M2 (mxoxox 2); about 50 % recombination with Cre R3M1 (mxoxox 1); about 50 % recombination in the series with Cre R3M3 (mxoxox 3).
